One block for each binder: values may come before it. Ends that are not written are not given here.
What was measured:
[1] = molecular target: T1, rat Y4 receptor (rat), Q63447; assay: 125I-PYY displacement, COS-7 membranes; conditions: remark: other sources report otherwise
T1 chain: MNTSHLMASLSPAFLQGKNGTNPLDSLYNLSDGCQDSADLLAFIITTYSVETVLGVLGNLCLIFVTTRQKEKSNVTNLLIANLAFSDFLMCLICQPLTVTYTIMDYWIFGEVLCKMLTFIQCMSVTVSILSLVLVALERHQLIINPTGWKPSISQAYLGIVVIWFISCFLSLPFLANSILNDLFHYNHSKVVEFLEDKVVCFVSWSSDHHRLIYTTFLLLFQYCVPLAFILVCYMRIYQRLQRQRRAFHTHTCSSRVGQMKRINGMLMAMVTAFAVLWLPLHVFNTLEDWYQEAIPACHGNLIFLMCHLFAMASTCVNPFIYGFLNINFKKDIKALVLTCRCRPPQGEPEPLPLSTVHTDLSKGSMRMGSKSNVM

[2] = molecular target: T2, rat hypothalamic Y5 receptor (rat)
T2 sequence: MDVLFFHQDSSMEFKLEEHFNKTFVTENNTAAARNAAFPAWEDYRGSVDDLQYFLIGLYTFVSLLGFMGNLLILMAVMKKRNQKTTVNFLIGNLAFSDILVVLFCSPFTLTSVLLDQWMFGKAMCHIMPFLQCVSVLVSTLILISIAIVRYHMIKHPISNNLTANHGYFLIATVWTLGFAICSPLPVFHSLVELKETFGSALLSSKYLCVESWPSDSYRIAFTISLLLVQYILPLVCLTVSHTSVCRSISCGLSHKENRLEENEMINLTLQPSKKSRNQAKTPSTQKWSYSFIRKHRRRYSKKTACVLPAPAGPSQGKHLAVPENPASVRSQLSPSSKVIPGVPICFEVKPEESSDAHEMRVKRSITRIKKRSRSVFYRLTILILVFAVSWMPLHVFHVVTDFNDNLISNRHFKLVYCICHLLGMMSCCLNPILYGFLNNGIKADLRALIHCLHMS

[3] = molecular target: T2, rat hypothalamic Y5 receptor (rat); remark: listed apart in the source
[4] = molecular target: human hippocampal Y5 receptor (human)
Sequence of human hippocampal Y5 receptor (human) (chain, as listed by the source): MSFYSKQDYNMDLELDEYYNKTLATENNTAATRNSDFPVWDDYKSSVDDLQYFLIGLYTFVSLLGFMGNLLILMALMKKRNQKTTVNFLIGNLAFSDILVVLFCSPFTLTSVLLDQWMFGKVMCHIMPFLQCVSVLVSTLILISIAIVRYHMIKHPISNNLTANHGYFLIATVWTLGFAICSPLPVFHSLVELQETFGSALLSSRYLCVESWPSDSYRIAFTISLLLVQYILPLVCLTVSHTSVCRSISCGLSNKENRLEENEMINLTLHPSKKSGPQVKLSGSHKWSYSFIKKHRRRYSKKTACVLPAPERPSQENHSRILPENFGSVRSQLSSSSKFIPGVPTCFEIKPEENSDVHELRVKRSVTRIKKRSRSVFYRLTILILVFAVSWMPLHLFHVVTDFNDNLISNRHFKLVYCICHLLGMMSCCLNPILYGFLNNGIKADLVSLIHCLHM

[5] = molecular target: T3, rat Y2 receptor (rat), Q9ERC0; assay: 125I-PYY displacement, COS-7 membranes; conditions: remark: other sources report otherwise
T3 chain: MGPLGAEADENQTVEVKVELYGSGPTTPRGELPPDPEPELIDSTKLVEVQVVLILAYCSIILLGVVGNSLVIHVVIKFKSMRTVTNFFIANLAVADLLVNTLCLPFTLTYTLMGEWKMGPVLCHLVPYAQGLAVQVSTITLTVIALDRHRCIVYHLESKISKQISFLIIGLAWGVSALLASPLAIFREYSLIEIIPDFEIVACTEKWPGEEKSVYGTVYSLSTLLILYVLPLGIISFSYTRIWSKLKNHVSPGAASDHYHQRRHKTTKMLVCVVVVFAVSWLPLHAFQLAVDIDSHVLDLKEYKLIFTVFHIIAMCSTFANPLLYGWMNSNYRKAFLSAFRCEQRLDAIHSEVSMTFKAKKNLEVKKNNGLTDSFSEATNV

Binder: PAEDLARYYSALRHYINLITRQRY (ends and bridges not checked) [porcine NPY13-36, P01304]
Ki [1]: 140 nM

Binder: FLRF-NH2 [FLRF-amide]
inhibition of forskolin-stimulated cAMP accumulation, EC50 [2]: 13000 nM
maximal suppression of cAMP relative to that produced by human NPY [3]: 42%

Binder: APLEPEYPGDNATPEQMAQYAAELRRYINMLTRPRY [bovine PP]
inhibition of forskolin-stimulated cAMP accumulation, EC50 [4]: 4 nM
inhibition of forskolin-stimulated cAMP accumulation, EC50 [2]: 5.7 nM

Continued, values first:

inhibition of forskolin-stimulated cAMP accumulation, EC50 [2]: 130 nM
Binder: APLEPMYPGDYATHEQRAQYETQLRRYINTLTRPRY [rat PP]

Ki [5]: > 830 nM
Binder: HYINLITRQRY (ends and bridges not checked) [porcine NPY26-36, P01304]

— patent US20020103123A1
